# Key:
# [1] = target: E2 ectodomain of HCV strain 1a116 (hepatitis C virus (genotype 1a, strain 1a116))
# [2] = target: E2 ectodomain of HCV strain 1a142 (hepatitis C virus (genotype 1a, strain 1a142)); experiment: ELISA
binder,measurement,setting,value
"HEPC108 IgG (antibody, V domains shown) VH: QVQLVQSGAEVKKPGSSVKVSCKASGDTFSSSAISWVRQAPGQGLEWMGGSIPIFGATKYAQKFQGRVTITTDKSTSTAYMELSSLRFEDTAVYYCARASIVNISGFVRFRFDSWGQGTLVTVSS VL: DIQMTQSPSSLSASVGDRVTITCQASQDISNYLNWYQQKPGKAPKLLIYDVSNLEIGVPSRFSGSGSGTEFTLTINSLQPEDLATYFCQHYDDVPPVYTFGQGTSLEIK","HCVpp neutralization IC50 (1a116 HCVpp, Huh7 cells)",[1],0.12 µg/mL
same,fold weaker binding than HEPC74 and AR3C (ELISA),[2],1.5 fold
